# Reference: patent US20250026782A1, “ACTIVATING APPENDAGES TO INDUCE POLYPHARMACOLOGY IN PEPTIDE HORMONE ANALOGUES, INCLUDING DUAL GLP-1R / GIP AGONISM” (Wisconsin Alumni Research Foundation, priority 2023, published 2025)
# Entries after “also recorded” stand apart in the source; their conditions may differ. No end group written: not given here. B4 T2‑OMe = not defined here
# Columns and labels:
# GLP-1 receptor = GLP-1 receptor (Homo sapiens, UniProt P43220); assay: cAMP production assay, activation of GLP-1R (GloSensor HEK293 cells); assay type: cell-based; details: result in words, EC50 values only in figures
# From the text: Cell medium was 0.22 μm-filtered DMEM supplemented with 10% (v/v) FBS (referred to as GS media) and penicillin/streptomycin.
# [1] = degraded by peptidases; cited from earlier work
# GIP receptor = target: T1, GIP receptor (Homo sapiens, UniProt P48546); assay: cAMP production assay, activation of GIPR (HEK 293 GS cells stably expressing GIPR); details: result in words, EC50 values only in figures
# T1 sequence (P48546 22-466): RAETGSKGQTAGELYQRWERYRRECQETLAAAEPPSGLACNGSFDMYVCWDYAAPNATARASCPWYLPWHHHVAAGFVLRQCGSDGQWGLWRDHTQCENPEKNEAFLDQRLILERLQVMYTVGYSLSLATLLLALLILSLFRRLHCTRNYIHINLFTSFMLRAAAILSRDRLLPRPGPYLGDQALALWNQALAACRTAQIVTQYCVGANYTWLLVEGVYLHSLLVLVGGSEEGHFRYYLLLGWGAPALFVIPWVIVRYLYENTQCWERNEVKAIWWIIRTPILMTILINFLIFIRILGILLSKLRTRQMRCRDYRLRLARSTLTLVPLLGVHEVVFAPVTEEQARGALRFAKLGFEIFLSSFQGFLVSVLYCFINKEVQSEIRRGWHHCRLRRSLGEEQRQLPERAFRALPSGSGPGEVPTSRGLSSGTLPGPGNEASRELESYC
# Sequence of GLP-1 receptor (P43220 24-463): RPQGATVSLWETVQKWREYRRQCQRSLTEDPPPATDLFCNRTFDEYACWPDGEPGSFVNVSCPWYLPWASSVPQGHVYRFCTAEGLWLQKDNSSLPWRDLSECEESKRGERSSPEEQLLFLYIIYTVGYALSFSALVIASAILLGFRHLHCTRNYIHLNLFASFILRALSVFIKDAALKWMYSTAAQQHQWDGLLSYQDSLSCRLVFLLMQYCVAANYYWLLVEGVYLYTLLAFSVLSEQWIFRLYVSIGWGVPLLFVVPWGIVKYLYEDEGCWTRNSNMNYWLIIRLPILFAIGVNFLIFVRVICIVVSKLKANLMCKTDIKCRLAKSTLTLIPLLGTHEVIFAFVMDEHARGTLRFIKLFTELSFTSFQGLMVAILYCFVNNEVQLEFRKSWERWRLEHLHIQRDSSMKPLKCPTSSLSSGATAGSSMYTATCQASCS
Substance,activation of the GLP-1 receptor (agonist activity / potency) (GLP-1 receptor),half-life in vivo [1] [min],activation of the GIP receptor (agonist activity / potency) (GIP receptor),activation of the GIP receptor (agonist activity / potency) (GIP receptor; listed as GLP-1*),activation of the GLP-1 receptor (agonist activity / potency) (GLP-1 receptor; listed as TZP),activation of the GIP receptor (agonist activity / potency) (GIP receptor; listed as TZP)
"GIP (1-30): amidated truncated form of glucose-dependent insulinotropic polypeptide, YAEGTFISDY SIAMDKIHQQ DEVNWLLAQK-NH2",does not activate the GLP-1 receptor,,,,,
"GLP-1: glucagon-like peptide-1, native hormone, HAEGTFTSDVSSYLEGQAAKEFIAWLVKGRG",,< 2,does not activate the GIP receptor; also recorded: no effect on the GIP receptor; also recorded: does not activate the GIPR,acts as an agonist; also recorded: agonists of both GLP-1 receptor and GIP receptor; also recorded: greater activity than other tested appendages,,
"GLP-1 16 B4 T2-OMe: GLP-1 with position 16 B4 T2 side chain, OMe variant of bisphenol (HAEGTFTSDK(B4 T2‑OMe)SSYLEGQAAKEFIAWLVKGRG; reading uncertain)",,,greater activity than other tested appendages,,,
tirzepatide,activation of the GLP-1 receptor,,activation of the GIP receptor,,dual GLP-1R/GIPR,dual GLP-1R/GIPR
